System: advanced NSCLC patients
Experiment: Toxicity: grade3-4 hypertension versus genotype, E4599 subset
Format: in vivo, human
Settings: bevacizumab arm
From the text: The problem, however, is that there is hardly any power to do this. There were a total of 30 cases on E4599 who reported grade3-4 hypertension of any attribution type on this study. Once these cases are merged with the correlatives dataset, there is an overlap of only 7 hypertension cases in the correlative study. The distribution of hypertension versus genotype for these VEGF polymorphisms, as well as the WNK1 polymorphisms is as follows: […]

Bevacizumab
HTN (number of patients, grade3-4 hypertension) (VEGF634 CC): 1
No HTN (number of patients) (VEGF634 CC): 10
HTN (number of patients, grade3-4 hypertension) (VEGF634 GC): 0
HTN (number of patients, grade3-4 hypertension) (VEGF634 GG): 6
No HTN (number of patients) (VEGF1498 CC): 18
HTN (number of patients, grade3-4 hypertension) (VEGF1498 CT): 1
No HTN (number of patients) (VEGF1498 CT): 21
No HTN (number of patients) (VEGF1498 TT): 17
HTN (number of patients, grade3-4 hypertension) (WNK1-2158501 GG (so in the source)): 1
No HTN (number of patients) (WNK1-2158501 TT (so in the source)): 18
HTN (number of patients, grade3-4 hypertension) (WNK1-110644560 GG): 0
No HTN (number of patients) (WNK1-110644560 GG): 7
HTN (number of patients, grade3-4 hypertension) (WNK1-110644560 GT): 1
HTN (number of patients, grade3-4 hypertension) (WNK1-110644560 TT): 6
No HTN (number of patients) (WNK1-110644560 TT): 18

From patent US20120100134A1, “GENETIC VARIANTS IN ANGIOGENESIS PATHWAY ASSOCIATED WITH CLINICAL OUTCOME” (University of Southern California, priority 2009, published 2012)
